Test system: CCNc1nc(Cl)nc(NC(C)C)n1
Test: cells, lysate or membranes
Conditions: apparent, whole uncoated E. coli cells (free cells), PBS (0.1 M, pH 7.4), room temperature, 20 min, 2.5 mg/mL cells, ATZ 1-20 mg/L

Substance: atrazine chlorohydrolase (AtzA) (Pseudomonas sp. ADP)
- Km: 89.12 ± 29.48 µM

Reference: article PMC8588562, “Layer-by-Layer Encapsulation of Herbicide-Degrading Bacteria for Improved Surface Properties and Compatibility in Soils” (Polymers, 2021)
